Laboratory results reported in the DeepSol protein solubility set.

Experiment: soluble on expression in E. coli; label from the status in PepcDB or PDB records

Sequence	soluble on expression in E. coli
MKFCYNVVTYCTKRKNNLQEYSIEITLQHPDDMMSLFGSNERHLKLIEENLDVIIHARTERVQVLGDSEEAVETARLTIEALLVLVNRGMTVNTSDVVTALSMAQNGSIDKFVALYEEEIIKDSYGKPIRVKTLGQKIYVDSVKNHDVVFGIGPAGTGKTFLAVTLAVTALKRGQVKRIILTRPAVEAGESLGFLPGDLKEKVDPYLRPVYDALYQILGKEQTSRLMEREIIEIAPLAYMRGRTLDDAFVILDEAQNTTIMQMKMFLTRLGFNSKMIVNGDVSQIDLPKNVKSGLIDAVEKLRNIKKIDFIHLSAKDVVRHPVVAEIINAYSDSESSHKLQSDKD	not soluble
MKFGKEIAKKNQIIYRYIILKIQSFEWPANTRIFSERQLEIRFNSSRSQIRSVLATLLNKNIIRYTKNTPGYFVCKDVGFSFFHKTQDNLKVKYAKLSTLIKKLLSQDDASVFANIDSTVHLDKFKGIEAKFFDENKKHFLNVCFFAKDDILNILDENNLQQQFFREFAYNGIAIEKRHCVTSVDKESGCLVMYDMYYDDNDNFVVASKSNFLNPELKVINA	soluble
MKFNIRGENIEVTPALKEYVEKKLSKLERYFDTFPEIKVNLKVYSDKQRVEVTIPFTDLLLRAEETNSDMYAAIDLVVDKIERQIRKHKTKVNRKLREKGSIKTNFILPEAVAVLDEVEEDELELVRTKRFDLKPMDVEEAILQMDMLGHNFFVFTNADTNETNVVYGRKDGKYGLIETKLEHHHHHH	soluble
MKFTVGIAMNPLDQLPALARTAEECGFSSIALPDSLFFMEKQSADYPYTPDGSRMWNEETPWVDPLIAAAAMGAVTSKIEFYTQVLKLGSRNPVLLARQVGSVANLIGNRFGFGVGIGWAPEEFEWCGVPYKKRGARVDEMIDVIKLILGGGMVEYHGEFFDFDRLQMSPAPTKPVPFYVGGHTDVALRRAARVGDGWTSAMIKFDDLVQVIARLRELREEYGRADLPYEIQTVCIDRFGKDGYAELADAGVTDTIVVPWVFDGIGFDGPLEAKQDSLRKFADQYIG	not soluble
MKGDRLKANVLAVRLIPNVDSDMAKELGLPNEHRSIGILTADCDDVTYTALDEATKKAVVDVAYGKSFYGGAANANTKLAGEVIGILSGPTPAEVKSGLAAAVDFIENEAAFISANDDDSIAYFAHCISRTGTYLSKTAGIPEGESLAYLIAPPLEAMYALDVALKAADVRLVAFYGPPSETNFGGGLLTGSQSACKAACDAFAEAVKFVADNPLNY	soluble
MKGERLDKVLARLGLGSRKEVARLVRQGKVRVLGQVVKDPGFRVPEGAALEVEGRPLEVRRHLHVLLHKPPGFVTSRTEGPSVYALLQGFPTRDLSPVGRLDKDAEGLLLFTTDGLLLHRLTHPRHKVAKRYLVHLERPVGPKDQEAFREGILLDGKKTLPAELTPLEDPTWAEVVLKEGRFHQIKRMFRARGNRVLRLKRLALGPLELGDLPPGKARPLTEAEEKALYAAVGLGGEDPEDEV	soluble
MKGFIDDANYSVGLLDEGTNLGNVIDNYVYEHTLTGKNAFFVGDLGKIVKKHSQWQTVVAQIKPFYTVKCNSTPAVLEILAALGTGFACSSKNEMALVQELGVSPENIIFTSPCKQVSQIKYAAKVGVNIMTCDNEIELKKIARNHPNAKVLLHIATEDNIGGEDGNMKFGTTLKNCRHLLECAKELDVQIIGVKFHVSSACKEYQVYVHALSDARCVFDMAGEFGFTMNMLDIGGGFTGTEIQLEEVNHVISPLLDIYFPEGSGIQIISEPGSYYVSSAFTLAVNIIAKKVVENDKFSSGVEKNGSDEPAFVYYMNDGVYGSFASKLSEDLNTIPEVHKKYKEDEPLFTSSLWGPSCDELDQIVESCLLPELNVGDWLIFDNMGADSFHEPSAFNDFQRPAIYFMMSFSDWYEMQDAGITSDAMMKNFFFAPSCIQLSQEDSFSTEA	soluble
MKGGCVSQWKAAAGFLFCVMVFASAERPVFTNHFLVELHKGGEDKARQVAAEHGFGVRKLEHHHHHH	not soluble
MKGITSLGSKWFVEFEKNNVHNVYDRIAEHFTKTRYRIWPGVELFLKQTSPLDTVLDVGCGNGKNLISYRNLFCIGIDRCVPLVKTCKQRQLETAVADILELPFQSEKFDIVLCIAVLHHLCTRERRILAIQELGRVLRPGGSCLLYVWAANENDGKDEVKNTKAREKMRFLDENKQEALIPWVVIDHEKKATQLEKNLKQPSTFTLERYYHLYRQGELEEECLQSNCFHIQHSYYEQSNWCVVLDKKS	soluble
MKGTIFAVALNHRSQLDAWQEAFQQSPYKAPPKTAVWFIKPRNTVIGCGEPIPFPQGEKVLSGATVALIVGKTATKVREEDAAEYIAGYALANDVSLPEESFYRPAIKAKCRDGFCPIGETVALSNVDNLTIYTEINGRPADHWNTADLQRNAAQLLSALSEFATLNPGDAILLGTPQARVEIQPGDRVRVLAEGFPPLENPVVDEREVTTRKSFPTLPHPHGTLFALGLNYADHASELEFKPPEEPLVFLKAPNTLTGDNQTSVRPNNIEYMHYEAELVVVIGKQARNVSEADAMDYVAGYTVCNDYAIRDYLENYYRPNLRVKSRDGLTPMLSTIVPKEAIPDPHNLTLRTFVNGELRQQGTTADLIFSVPFLIAYLSEFMTLNPGDMIATGTPKGLSDVVPGDEVVVEVEGVGRLVNRIVSEETAK	soluble
MKHLKFQSVFDIIGPVMIGPSSSHTAGAVRIGKVVHSIFGEPSEVTFHLYNSFAKTYQGHGTDKALVAGILGMDTDNPDIKNSLEIAHQKGIKIYWDILKDSNSPHPNTAKITVKNGDRSMSITGVSIGGGNIQVTELNGFSVSLTMNTPTLIIVHQDIPGMIAKVTDILSDFNINIAQMNVTRESAGEKAIMIIEVDSRDCQQAVKKIEAIPHLHNVNFFD	soluble
MKHTFKLSLLCSAILLAGCGDNTSSSGTTDKVTFESEVQALLDRGTSISFTIQGANADVPAPSYLLMDTSDGTLGLPTNGDDALTNPRASMNTMDGWSTSMPIVLNFNGDGFAPGMLASGVKVIKINQRLTEWDGKTNPIAKVLVQNQDYVVQANGKSLYVQFADSLDESSEYIFAVTQDVTDVNGEPIGTSSSYAVAKSKQVKYESGDLASVQAVTEAVEGIFGLAQVNPADIVYSSWFSTQSVGDTLAAVKGVTATGFATGANTLNTIYKNDTNENAVDLATAYTMVLGETQDFMTALDSDSDFNKYVSDLDAAKTAIKGLYVQSGASVNVTQGQVRLPHYLEKGANWNMQPMVSAMPSLAKLNAALTDPAEQANMVQQLSSGVFASSPVDVSKLATDPTEQLKLVGSKLYLNDGTQLDSERVITRYSPVPEVKSLENVEFLLFTPQNGVAKDVVIYQHGITSAKENAYAFAFNMVQTGVAVIAIDLPIHGTRSLDEQRSANANVLAYLNLSNLAVARDNLRQSVLDVLGLRASLVVSAQGGLLAGGPLQGFNPMTGSQVK	not soluble
MKIAIGSDHAGFPLKEKIKEFLKGEGHKVIDVGTHAQESTHYPIYAKEVVRAIRSGKAERGILICGTGIGMSITANKFRGIRAALCTNEYMARMSRLHNDANVLCLGERVLGVELALSIVKVWLETPFEGGRHLKRLEIISEIEDEICGENIPR	soluble
MKIAILGAGCYRTHAAAGITNFMRACEVAKEVGKPEIALTHSSITYGAELLHLVPDVKEVIVSDPCFAEEPGLVVIDEFDPKEVMEAHLSGNPESIMPKIREVVKAKAKELPKPPKACIHLVHPEDVGLKVTSDDREAVEGADIVITWLPKGNKQPDIIKKFADAIPEGAIVTHAATIPTTKFAKIFKDLGREDLNITSYHPGCVPEMKGQVYIAEGYASEEAVNKLYEIGKIARGKAFKMPANLIGPVCDMCSAVTATVYAGLLAYRDAVTKILGAPADFAQMMADEALTQIHNLMKEKGIANMEEALDPAALLGTADSMCFGPLAEILPTALKVLEKHKVVEEEGKTKCEIMSQKE	soluble
MKIAIVGAGIGGLTAAALLCEQGHEVKVFEKNSTITEVGAGIGIGGNVIDKLGKHDLAKGIKNIGQVINVMEILDDKDNVLSKAKLKKNTVNLTMTRQSLIDVIKSYVSESAIYTNHHVTHVDNNALKVVMHFEAQEAEAFDLCIGADGLHSNIRHTVAPNSKTQYQGYTVFRGLVEDIDIKSDNVAKEYWSAKGRVGVVPLLNNQAYWFISINAKENDATMQSYGKPHLQARFNHFPNEVRKVLDKQSETDILLHDIYDLQPLKTFVYQRVILLGDAAHATTPNMGQGAGQAMEDAIVLANCLQAYPFEAALQRYDKIRVDHTKKVIKRSRKIGKLAQRSNKIVISLRNSIAKIMPNRLVAAQTKFIYKSKNKLEHHHHHH	soluble
MKIEHLQHPTTHQLDQLMTIWLSGNLTAHDFVSADYWRQQAPLVREALQSAELIVGLTDGPEAYILGFIGLQNDYIAGIFICNDAQHQGLGTALLATAQADYHQLQLNVYVANRPAIAFYHYHGFRVIDQASDQATQQSEYTMQWQR	not soluble
MKIGFFTDTYFPQVSGVATSIKTLKDELEKHGHEVYIFTTTDPNATDFEEDVIRMPSVPFVSFKDRRVVVRGMWYAYLIAKELELDLIHTHTEFGAGILGKMVGKKMKIPVIHTYHTMYEDYLHYIAKGKVVRPSHVKFFSRVFTNHTTGVVCPSERVIEKLRDYGVTAPMRIIPTGIEIDKFLRPDITEEMIAGMRQQLGIEEQQIMLLSLSRISYEKNIQAIIQGLPQVIEKLPQTRLVIVGNGPYLEDLKELAEELEVSEYVQFTGEVPNEEVAIYYKAADYFVSASTSETQGLTYTEAMAAGVQCVAEGNAYLNNLFDHESLGKTFKTDSDFATTLIDYIQANIKMDQTILDEKLFEISSTNFGNKMIEFYQDTLIYFDQLQMEKENADSIKKIKVKFTSLRKLEHHHHHH	soluble
MKIIVQKFGGTSVKDDKGRKLALGHIKEAISEGYKVVVVVSAMGRKGDPYATDSLLGLLYGDQSAISPREQDLLLSCGETISSVVFTSMLLDNGVKAAALTGAQAGFLTNDQHTNAKIIEMKPERLFSVLANHDAVVVAGFQGATEKGDTTTIGRGGSDTSAAALGAAVDAEYIDIFTDVEGVMTADPRVVENAKPLPVVTYTEICNLAYQGAKVISPRAVEIAMQAKVPIRVRSTYSNDKGTLVTSHHSSKVGSDVFERLITGIAHVKDVTQFKVPAKIGQYNVQTEVFKAMANAGISVDFFNITPSEIVYTVAGNKTETAQRILMDMGYDPMVTRNCAKVSAVGAGIMGVPGVTSKIVSALSEKEIPILQSADSHTTIWVLVHEADMVPAVNALHEEFELSK	soluble
MKIKVISRNPNTYQRETTDKRNKIVRNFNTPADPFRSQVEYTRALNATKLERVFAKPFVASLDGHVDGVQVLAKHPNRPSTVFSGARDGQVKIWNLASRECQATLDAHRGLVNDISIDNNNGENFVTVGQDNQLKYWKIEGQQKTPAHSIAMDGIVYGVSHLSFSSDFVTCGEDISVWKPYRETPLRSYNLGTDTIHTCRANPVEENVIVGARSDRSIYVLDTRQDVPLKKVTMKMRPNKISWNPMEAYNFTVASEDYSLYTFDMRYMEHPVQSHQGFTSAVLDVDYSPTGQEFVAAGYDRSIRLFKARDMTSRDVYYTKRMASVLSVLWSADSKFVLSGSNEMNIRVWKANAAEKLGPLTKREKQAFAYNEKLRDTYKNHPEVRRIAKHRNVPRHIFTAAKEHKLIRDARGRRDFRRAKAAGLDEEESYLPQTQKIMVGDAEM	not soluble
MKILLEVKYMTKFQVAYVPVGVPTFHLESAQKEFEKSIDLLNTITDAAIVPDKMLLSIQDLTNFLDTIEPSLIILQNITFANAAYASEVLKRFSCPVLLWTLREPVIDGGRLRLNSLTGAYSAGNALAAFRDGNFEYIFGAPQEERTKKTISACIRAAWLKNELKNLRIASVGHTPQGFGFGRAMDADMQKVFGATLESIEVRELIDMAKGYTDDECSEYLDKMTKCTVGLDKTPDNNRKDFARLCKAYKEYVDENNIGALSSRCWPDFFTAFGTPVCGVLAMLNDMGVAASCEADTYGALSMYMGMKLSEQAVFFGDPVSLDESENTITFWHCGTAACSIAREDTGATIGVHPNRKIGPVMDFGCKAADKVTVFRVGQKADGSFRFFVTTGSALDKPKQFCGTSIVVRTDKNSYDIVNQSVKDGWEPHFVVIYGDCSDELKVLGHMLEIEVCEY	not soluble
